Results taken from patent publication US20230151111A1 (AKESO BIOPHARMA, published 2023).

T1: CD73 on cell membrane surface (MDA-MB-231, U87-MG) (human, UniProt P21589 27-549)
T1 construct: whole, on cells; also called NT5E
T1 sequence (looked up): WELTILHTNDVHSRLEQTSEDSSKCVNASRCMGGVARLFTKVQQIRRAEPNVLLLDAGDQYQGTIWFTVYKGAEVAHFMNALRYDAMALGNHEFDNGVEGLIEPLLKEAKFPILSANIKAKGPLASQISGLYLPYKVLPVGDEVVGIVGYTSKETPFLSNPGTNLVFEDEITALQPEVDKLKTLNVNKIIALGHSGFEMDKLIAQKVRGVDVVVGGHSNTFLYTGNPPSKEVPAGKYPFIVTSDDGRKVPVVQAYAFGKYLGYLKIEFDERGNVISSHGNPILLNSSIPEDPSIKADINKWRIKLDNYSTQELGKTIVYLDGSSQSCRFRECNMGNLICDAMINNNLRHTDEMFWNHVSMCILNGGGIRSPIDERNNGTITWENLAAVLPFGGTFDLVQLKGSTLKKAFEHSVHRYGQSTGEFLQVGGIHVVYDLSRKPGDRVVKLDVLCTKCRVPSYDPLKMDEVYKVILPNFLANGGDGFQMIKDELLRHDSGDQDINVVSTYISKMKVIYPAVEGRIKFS

T2: human NT5E-Biotin (human, UniProt P21589 27-552, limits assumed, biotin label, site not stated)
T2 construct: Captured on streptavidin-coated plates; also called human NTSE-Biotin
T2 sequence (looked up): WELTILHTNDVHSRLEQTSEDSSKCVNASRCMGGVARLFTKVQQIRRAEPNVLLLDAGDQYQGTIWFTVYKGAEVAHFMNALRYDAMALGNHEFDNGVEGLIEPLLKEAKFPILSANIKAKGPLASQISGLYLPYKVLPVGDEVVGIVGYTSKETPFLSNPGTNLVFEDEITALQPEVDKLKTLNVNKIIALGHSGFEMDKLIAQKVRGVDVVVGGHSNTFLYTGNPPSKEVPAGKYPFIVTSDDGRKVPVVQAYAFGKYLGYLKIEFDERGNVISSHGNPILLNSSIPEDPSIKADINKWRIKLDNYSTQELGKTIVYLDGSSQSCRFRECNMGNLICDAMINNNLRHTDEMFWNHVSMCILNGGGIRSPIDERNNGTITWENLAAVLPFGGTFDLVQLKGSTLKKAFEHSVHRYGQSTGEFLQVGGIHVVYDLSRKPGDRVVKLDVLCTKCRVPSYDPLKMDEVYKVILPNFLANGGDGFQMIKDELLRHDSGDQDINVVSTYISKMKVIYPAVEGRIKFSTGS


How the values were obtained:
[1] = target: T1, CD73 on cell membrane surface …; assay: flow cytometry, MDA-MB-231 cells
Experimental: (§1) MDA-MB-231 cells in logarithmic phase were digested with conventional trypsin and transferred to a 1.5 mL centrifuge tube at 3×10⁵ cells/tube. 500 μL of PBSA was added, and the mixture was centrifuged at 5600 rpm for 5 min to remove the supernatant. […] The system was mixed gently and uniformly, and then was incubated on ice for 1 h. Then 500 μL of PBSA was added, and the mixture was centrifuged at 5600 rpm for 5 min to remove the supernatant. […] 500 μL of PBSA was added, and the mixture was centrifuged at 5600 rpm for 5 min to remove the supernatant. At last, 200 μL of PBSA was added to resuspend cell precipitates, and the mixture was transferred to a flow tube for FACSCalibur detection.

[2] = target: T3, PD-1 on 293T-PD1 cell surface (human, UniProt Q15116 25-288); assay: flow cytometry, 293T-PD1 cells; antibody 100.00 nM
T3 construct: whole, on cells
Experimental: as §1, with “500” for “MDA-MB-231 cells in logarithmic phase were digested with conventional trypsin and transferred to a 1.5 mL centrifuge tube at 3×10⁵ cells/tube. 500”

[3] = target: T3, PD-1 on 293T-PD1 cell surface; assay: flow cytometry, 293T-PD1 cells; antibody 0.41 nM
Experimental: as §1, with “500” for “MDA-MB-231 cells in logarithmic phase were digested with conventional trypsin and transferred to a 1.5 mL centrifuge tube at 3×10⁵ cells/tube. 500”

human NT5E-Biotin = target: T2, human NT5E-Biotin; assay: ELISA, NT5E-biotin on streptavidin
Experimental: A microplate was coated with streptavidin at 2 μg/mL and then incubated at 4° C. overnight. After incubation, the microplate coated with streptavidin was washed once with PBST, and blocked with a PBS solution containing 1% BSA as a microplate blocking solution at 37° C. for 2 h. After blocking, the microplate was washed 3 times with PBST. Then, 0.5 μg/mL antigen human NTSE-Biotin was added and incubated at 37° C. for 30 min. Then, the plate was washed 3 times with PBST. The antibodies serially diluted with PBST solution (the dilution gradients for the antibody are shown in Table 3) were added to wells of the microplate. The microplate containing the test antibodies was incubated at 37° C. for 30 min, and then washed 3 times with PBST. […] After incubation, the plate was washed 4 times with PBST, TMB (Neogen, 308177) was added in the dark for chromogenesis for 5 min, and then a stop solution was added to terminate chromogenic reaction. The microplate was put into a microplate reader immediately, and the OD value of each well in the microplate was read at 450 nm. The data were analyzed and processed by SoftMax Pro 6.2.1.

[4] = target: T3, PD-1 on 293T-PD1 cell surface; assay: flow cytometry, 293T-PD1 cells; antibody 1.23 nM
Experimental: as §1, with “500” for “MDA-MB-231 cells in logarithmic phase were digested with conventional trypsin and transferred to a 1.5 mL centrifuge tube at 3×10⁵ cells/tube. 500”

PD-1-mFc = target: T4, PD-1-mFc (human, UniProt Q15116 25-170, limits assumed); assay: ELISA, PD-1-mFc coated
T4 construct: also called human PD-1-mFc
Experimental: A microplate was coated with PD-1-mFc at 0.5 μg/mL and incubated at 4° C. overnight. Then the microplate coated with antigens was washed once with PBST, and then blocked with a PBS solution containing 1% BSA as blocking solution at 37° C. for 2 h. After blocking, the microplate was washed 3 times with PBST. The microplate containing the test antibodies was incubated at 37° C. for 30 min, and then washed 3 times with PBST. […] After incubation, the plate was washed 4 times with PBST, TMB (Neogen, 308177) was added in the dark for chromogenesis for 5 min, and then a stop solution was added to terminate chromogenic reaction. The microplate was put into a microplate reader immediately, and the OD value of each well in the microplate was read at 450 nm. The data were analyzed and processed by SoftMax Pro 6.2.1,

T3 sequence (Q15116 25-288): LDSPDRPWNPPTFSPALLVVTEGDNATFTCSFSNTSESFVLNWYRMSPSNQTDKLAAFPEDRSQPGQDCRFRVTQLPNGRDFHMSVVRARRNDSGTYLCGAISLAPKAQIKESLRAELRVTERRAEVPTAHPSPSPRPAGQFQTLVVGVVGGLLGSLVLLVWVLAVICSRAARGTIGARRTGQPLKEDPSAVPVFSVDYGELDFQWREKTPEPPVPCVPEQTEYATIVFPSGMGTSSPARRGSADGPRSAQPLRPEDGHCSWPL
T4 sequence (Q15116 other isoform, or with tags, fused parts or gaps limits assumed): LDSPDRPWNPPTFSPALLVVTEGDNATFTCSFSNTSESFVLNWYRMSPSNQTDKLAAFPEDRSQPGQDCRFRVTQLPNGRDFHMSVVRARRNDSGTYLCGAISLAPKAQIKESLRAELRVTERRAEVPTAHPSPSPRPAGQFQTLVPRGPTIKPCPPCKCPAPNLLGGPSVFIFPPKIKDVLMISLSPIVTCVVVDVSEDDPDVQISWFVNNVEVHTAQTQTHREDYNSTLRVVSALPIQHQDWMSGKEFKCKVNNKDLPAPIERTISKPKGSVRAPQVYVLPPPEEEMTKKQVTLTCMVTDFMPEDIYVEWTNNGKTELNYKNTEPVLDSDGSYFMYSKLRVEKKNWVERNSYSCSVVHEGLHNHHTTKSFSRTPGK

Binder | EC50 [1] [nM] | FACS signal [2] | FACS signal [3] | EC50 (human NT5E-Biotin) [nM] | FACS signal [4] | EC50 (PD-1-mFc) [nM]
P1D7V01 (bispecific antibody, human IgG1, kappa, Morrison form IgG-scFv) heavy: not shown light: DIQMTQSPSSMSASVGDRVTFTCRASQDINTYLSWFQQKPGKSPKTLIYRANRLVSGVPSRFSGSGSGQDYTLTISSLQPEDMATYYCLQYDEFPLTFGAGTKLELKRTVAAPSVFIFPPSDEQLKSGTASVVCLLNNFYPREAKVQWKVDNALQSGNSQESVTEQDSKDSTYSLSSTLTLSKADYEKHKVYACEVTHQGLSSPVTKSFNRGEC | 1.38 | 531 | 151 | 0.063 | 307 | 0.078
P1D7V03 (bispecific antibody, human IgG1, kappa, Morrison form IgG-scFv) heavy: not shown light: DIQMTQSPSSMSASVGDRVTFTCRASQDINTYLSWFQQKPGKSPKTLIYRANRLVSGVPSRFSGSGSGQDYTLTISSLQPEDMATYYCLQYDEFPLTFGAGTKLELKRTVAAPSVFIFPPSDEQLKSGTASVVCLLNNFYPREAKVQWKVDNALQSGNSQESVTEQDSKDSTYSLSSTLTLSKADYEKHKVYACEVTHQGLSSPVTKSFNRGEC | 2.01 | 343 | 118 | 0.068 | 289 | 0.075
